This is an account of results in PMC5372565, “Proline Residues as Switches in Conformational Changes Leading to Amyloid Fibril Formation” (International Journal of Molecular Sciences, 2017).

As usually defined, the stoichiometry N is a count of units in the complex or per binding partner.

The subject of data set [1] is P04080. Description: SEC; Y31 variant and its mutants; conditions not told for this experiment. (In general: SEC sorts molecules by how far they enter the pores of the column.)
Data set [2] addresses stefin B-Y31 P79S mutant (human) (UniProt P04080). The description is as above.
Data set [3] concerns the molecule itself. Description: SEC; Superdex 75 FPLC column, 0.5 mL/min, typically 100 uL of 50 uM protein, 10 mM potassium phosphate pH 7.0, 0.15 M NaCl; samples frozen and unfrozen once; percentages estimated from the surface area of the peaks.
For data set [4], the target named is P04080. Described as above.
Data set [5] deals with P04080. Description: SEC; Y31 variant and its mutants; conditions not told for this experiment. The source holds these as a separate data set.
Data set [6] deals with the molecule itself. Described as above.

Where “and” joins values, the source holds several entries; their conditions need not be identical. Equal values may be shown once.

In the case of stefin B-Y31 P79S mutant, the “percent dimers (SEC)” value with P04080 [1] worked out at 100% were dimeric.
“stefin B-Y31 P79S mutant (from UniProt P04080 4-98) (natural protein)” came in with a stoichiometry N in data set [2] of 2.

B1: stefin B P79S mutant (of the wt C3S E31-stefin B) (natural protein, human, UniProt P04080 1-98, looked up)
chain: MMSGAPSATQPATAETQHIADQVRSQLEEKENKKFPVFKAVSFKSQVVAGTNYFIKVHVGDEDFVHLRVFQSLPHENKSLTLSNYQTNKAKHDELTYF
notes: human stefin B (cystatin B), 98 amino acids, E31 variant, C3S, with P79S
Consider B1, for which the “stoichiometry N” value in data set [3] was 4 and 2. In addition, in the data set with P04080 [4], the “percent dimers (SEC peak area)” value is given as 55% dimers, the “percent higher molecular weight species (SEC peak area)” value is on record as 15% of higher molecular weight species and the “percent tetramers (SEC peak area)” value is recorded as “around 30% tetramers”.

B2: stefin B P6L mutant (of the wt C3S E31-stefin B) (natural protein, human, UniProt P04080 1-98, looked up)
chain: MMSGALSATQPATAETQHIADQVRSQLEEKENKKFPVFKAVSFKSQVVAGTNYFIKVHVGDEDFVHLRVFQSLPHENKPLTLSNYQTNKAKHDELTYF
notes: human stefin B (cystatin B), 98 amino acids, E31 variant, C3S, with P6L
With B2, the binding result in data set [3] is on record as “binds”.

B3: stefin B-Y31 variant (with Y at site 31) (natural protein, human, UniProt P04080 1-98, looked up)
chain: MMSGAPSATQPATAETQHIADQVRSQLEEKYNKKFPVFKAVSFKSQVVAGTNYFIKVHVGDEDFVHLRVFQSLPHENKPLTLSNYQTNKAKHDELTYF
notes: human stefin B (cystatin B), 98 amino acids, variant with Y at site 31; Cys 3 changed to Ser 'for all in vitro studies'
As to B3, in the data set with P04080 [5], the “percent monomers (SEC)” value was 70% and 75% of molecules were monomers, respectively and the rest were dimers. In data set [6], the “stoichiometry N” value came out at 2.

B4: stefin B P36D mutant (of the wt C3S E31-stefin B) (natural protein, human, UniProt P04080 1-98, looked up)
chain: MMSGAPSATQPATAETQHIADQVRSQLEEKENKKFDVFKAVSFKSQVVAGTNYFIKVHVGDEDFVHLRVFQSLPHENKPLTLSNYQTNKAKHDELTYF
notes: human stefin B (cystatin B), 98 amino acids, E31 variant, C3S, with P36D
As to B4, the “stoichiometry N” value in data set [3] was 2 and 4.

B5: stefin B-Y31 P36G mutant (natural protein, human, UniProt P04080 1-98, looked up)
chain: MMSGAPSATQPATAETQHIADQVRSQLEEKYNKKFGVFKAVSFKSQVVAGTNYFIKVHVGDEDFVHLRVFQSLPHENKPLTLSNYQTNKAKHDELTYF
notes: human stefin B (cystatin B), 98 amino acids, variant with Y at site 31, with P36G; Cys 3 changed to Ser 'for all in vitro studies'
As for B5, the “percent monomers (SEC)” value with P04080 [5] was 70% and 75% of molecules were monomers, respectively and the rest were dimers. In data set [6], the “stoichiometry N” value was 2.

B6: stefin B P11S mutant (of the wt C3S E31-stefin B) (natural protein, human, UniProt P04080 1-98, looked up)
chain: MMSGAPSATQSATAETQHIADQVRSQLEEKENKKFPVFKAVSFKSQVVAGTNYFIKVHVGDEDFVHLRVFQSLPHENKPLTLSNYQTNKAKHDELTYF
notes: human stefin B (cystatin B), 98 amino acids, E31 variant, C3S, with P11S
In the case of B6, the binding result in data set [3] is reported as “binds”.

B7: stefin B P74S mutant (of the wt C3S E31-stefin B) (protein)
chain: MMSGAPSATQPATAETQHIADQVRSQLEEKENKKFPVFKAVSFKSQVVAGTNYFIKVHVGDEDFVHLRVFQSLSHENKPLTLSNYQTNKAKHDELTYF
In the case of B7, in the data set with P04080 [4], the “percent oligomers (SEC)” value is “The tendency to form oligomers is high for the P74S mutant of the wt (>50%)”.

B8: wild-type like C3S E31-stefin B (human) (natural protein, UniProt P04080 1-98, looked up)
chain: MMSGAPSATQPATAETQHIADQVRSQLEEKENKKFPVFKAVSFKSQVVAGTNYFIKVHVGDEDFVHLRVFQSLPHENKPLTLSNYQTNKAKHDELTYF
notes: human stefin B (cystatin B), 98 amino acids, E31 variant, Cys 3 changed to Ser; also called wt stefin B; wt
Regarding B8, in data set [3], the “stoichiometry N” value is 2 and 4. Also, in the data set with P04080 [4], the “percent dimers (SEC peak area)” value is reported as 65% dimers, the “percent higher oligomers (SEC peak area)” value was 10% of higher oligomers, the “percent monomers (SEC peak area)” value is on record as 5% monomers and the “percent tetramers (SEC peak area)” value is recorded as 20% tetramers.
